Measured values reported in patent US20130236459A1 (MERRIMACK PHARMACEUTICALS, published 2013).
Like-named read-outs stand apart in the source and are kept apart here. Values belong to the binder of their own block, whether it stands above or below them.

Legend:
[1] = target: T1, ErbB3 (HER3), endogenous on human tumor cell lines (human, UniProt P21860 20-1342); assay: summary sentence of Example 3 (FACS on cells)
T1 construct: Target of the anti-ErbB3 arm in cell assays
Procedure: (§1) 1×10⁵ MCF7 cells or 1×10⁵ ADRr cells are incubated at room temperature for 2 hours with each of ELI-7, ILE-10 and ILE-12, two anti-ErB3 antibodies and one anti-IGF-1R antibody at 2 uM, followed by 12 subsequent 3-fold dilutions. Then using goat anti-HSA-Alexa647 conjugated antibody as the detection antibody, cells are incubated on ice for 40 minutes. Cell binding dissociation constants (measures of binding affinities) of the antibodies on MCF7 and ADRr cells are assessed by FACS and apparent dissociation constants are determined for each protein. The following results were obtained (see also FIGS. 14A and 14B): […]

[2] = target: T2, IGF-1R (receptor for insulin-like growth factor 1), endogenous on human tumor cell lines (human, UniProt P08069 31-1367); assay: summary sentence of Example 3 (FACS on cells)
T2 construct: whole, on cells; Target of the anti-IGF-1R arm in cell assays
T2 sequence (P08069 31-1367): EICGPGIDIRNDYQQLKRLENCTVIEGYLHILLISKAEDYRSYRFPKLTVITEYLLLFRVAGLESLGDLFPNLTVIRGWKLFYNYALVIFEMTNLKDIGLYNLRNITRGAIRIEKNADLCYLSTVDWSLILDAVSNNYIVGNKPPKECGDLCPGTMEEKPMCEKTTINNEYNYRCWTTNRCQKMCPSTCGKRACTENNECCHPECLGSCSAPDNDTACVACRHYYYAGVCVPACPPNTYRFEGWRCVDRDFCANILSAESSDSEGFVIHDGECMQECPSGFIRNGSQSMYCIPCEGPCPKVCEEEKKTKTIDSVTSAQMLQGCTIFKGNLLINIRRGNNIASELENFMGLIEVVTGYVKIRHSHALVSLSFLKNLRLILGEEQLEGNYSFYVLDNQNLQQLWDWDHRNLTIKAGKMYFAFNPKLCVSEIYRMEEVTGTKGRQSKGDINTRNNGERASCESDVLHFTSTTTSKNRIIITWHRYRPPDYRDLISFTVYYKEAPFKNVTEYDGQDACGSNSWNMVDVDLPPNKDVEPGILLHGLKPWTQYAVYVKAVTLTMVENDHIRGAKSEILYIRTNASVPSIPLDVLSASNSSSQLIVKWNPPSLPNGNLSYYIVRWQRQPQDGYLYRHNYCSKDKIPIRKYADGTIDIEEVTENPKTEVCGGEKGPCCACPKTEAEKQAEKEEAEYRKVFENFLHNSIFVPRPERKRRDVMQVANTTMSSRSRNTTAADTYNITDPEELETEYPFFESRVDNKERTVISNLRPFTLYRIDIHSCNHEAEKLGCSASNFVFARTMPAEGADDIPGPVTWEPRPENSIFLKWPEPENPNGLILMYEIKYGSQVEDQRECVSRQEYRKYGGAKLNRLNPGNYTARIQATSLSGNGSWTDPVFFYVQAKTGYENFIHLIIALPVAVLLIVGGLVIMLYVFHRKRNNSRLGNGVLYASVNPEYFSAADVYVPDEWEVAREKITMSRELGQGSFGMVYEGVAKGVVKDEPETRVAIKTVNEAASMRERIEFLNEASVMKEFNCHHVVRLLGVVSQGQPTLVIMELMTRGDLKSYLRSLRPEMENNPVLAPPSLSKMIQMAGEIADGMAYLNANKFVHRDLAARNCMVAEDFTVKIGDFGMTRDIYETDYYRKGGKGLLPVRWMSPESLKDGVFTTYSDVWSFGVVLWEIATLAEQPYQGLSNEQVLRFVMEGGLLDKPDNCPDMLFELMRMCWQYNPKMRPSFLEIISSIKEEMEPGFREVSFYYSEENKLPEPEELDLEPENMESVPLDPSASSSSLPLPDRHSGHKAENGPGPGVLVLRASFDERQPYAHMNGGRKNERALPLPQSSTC
Procedure: as §1

[3] = target: T2, IGF-1R (receptor for insulin-like …); assay: cell-based or functional assay
mouse IGF-1R-His = target: T3, mouse IGF-1R-His (mouse, UniProt Q60751 31-936, limits assumed); assay: ELISA, species specific IGF-1R-His coated plate
T3 construct: not shown: His tag, not further described
T3 sequence (Q60751 31-936 limits assumed): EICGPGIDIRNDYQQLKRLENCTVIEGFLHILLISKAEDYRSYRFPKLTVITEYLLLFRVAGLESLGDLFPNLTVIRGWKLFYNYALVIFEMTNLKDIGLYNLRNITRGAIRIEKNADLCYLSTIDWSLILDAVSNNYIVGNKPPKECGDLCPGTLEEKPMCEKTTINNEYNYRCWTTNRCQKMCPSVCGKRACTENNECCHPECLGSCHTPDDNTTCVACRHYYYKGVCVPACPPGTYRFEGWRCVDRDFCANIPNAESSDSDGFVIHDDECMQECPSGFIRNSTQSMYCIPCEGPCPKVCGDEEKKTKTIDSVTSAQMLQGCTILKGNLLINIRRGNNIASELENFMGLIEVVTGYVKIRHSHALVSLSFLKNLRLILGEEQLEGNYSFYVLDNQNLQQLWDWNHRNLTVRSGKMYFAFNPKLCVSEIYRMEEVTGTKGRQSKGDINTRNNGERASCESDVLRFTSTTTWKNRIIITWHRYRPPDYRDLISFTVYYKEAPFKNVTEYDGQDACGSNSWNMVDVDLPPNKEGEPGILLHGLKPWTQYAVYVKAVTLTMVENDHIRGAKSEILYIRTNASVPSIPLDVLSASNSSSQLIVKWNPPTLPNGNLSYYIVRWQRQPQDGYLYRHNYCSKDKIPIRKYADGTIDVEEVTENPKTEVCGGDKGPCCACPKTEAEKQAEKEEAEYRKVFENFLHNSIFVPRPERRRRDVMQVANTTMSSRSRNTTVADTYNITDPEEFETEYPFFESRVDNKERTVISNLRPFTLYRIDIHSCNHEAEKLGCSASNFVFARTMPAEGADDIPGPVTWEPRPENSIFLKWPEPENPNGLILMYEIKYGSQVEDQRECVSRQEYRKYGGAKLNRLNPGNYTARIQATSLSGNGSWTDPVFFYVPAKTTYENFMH
Procedure: (§2) 96-well Reacti-bind® plates (Pierce, Fisher cat. No. PI-I5041) are coated with 50 ul of species specific ErbB3-His or IGF-1R-His (R&D Systems, cat. No. 348-RB and 305-GR, respectively) at 2 ug/ml in PBS and incubated overnight at 4° C. The next day plates are washed with PBS+0.05% Tween-20 (PBS-T) and blocked for 1 hr. at room temperature with 100 ul of Protein-Free Blocking Buffer (Pierce). Plates are washed with PBS-T and 50 ul of each PBA is added in duplicate. Concentrations start at 500 nM (in PBS-T) and included ten additional two-fold dilutions and one blank (PBS-T only). Plates are incubated at room temperature for two hours and then washed with PBS-T. 50 ul of anti-Fc-HRP (Jackson Labs) is added at 1:40,000 in PBS-T, and plates are incubated in the dark for 1 hr. at room temperature. Plates are again washed with PBS-T and 100 ul of TMB substrate (Thermo Scientific, TMB and peroxide solution mixed 1:1) is added. The plates are incubated for 5-15 minutes at room temperature until a blue color develops, and the reaction is stopped with 100 ul of STOP solution (Cell Signaling Technology). The absorbance is read at 450 nm on a PerkinElmer Envision plate reader, and binding curves are generated using GraphPad Prism.

[4] = target: T1, ErbB3 (HER3), endogenous on human tumor …; assay: cell-based or functional assay
[5] = target: T2, IGF-1R (receptor for insulin-like …); assay: cell-based or functional assay; remark: listed apart in the source
[6] = target: T1, ErbB3 (HER3), endogenous on human tumor …; assay: cell-based or functional assay; remark: listed apart in the source
[7] = target: T2, IGF-1R (receptor for insulin-like …); assay: cell-based or functional assay; remark: listed apart in the source
mouse ErbB3-His = target: T4, mouse ErbB3-His (mouse, UniProt Q61526 20-641, limits assumed); assay: ELISA, species specific ErbB3-His coated plate
T4 construct: not shown: His tag, not further described for this species form
Procedure: as §2

rat ErbB3-His = target: T5, rat ErbB3-His (rat, UniProt Q62799 20-641, limits assumed); assay: ELISA, species specific ErbB3-His coated plate
T5 construct: not shown: His tag, not further described for this species form
T5 sequence (Q62799 20-641 limits assumed): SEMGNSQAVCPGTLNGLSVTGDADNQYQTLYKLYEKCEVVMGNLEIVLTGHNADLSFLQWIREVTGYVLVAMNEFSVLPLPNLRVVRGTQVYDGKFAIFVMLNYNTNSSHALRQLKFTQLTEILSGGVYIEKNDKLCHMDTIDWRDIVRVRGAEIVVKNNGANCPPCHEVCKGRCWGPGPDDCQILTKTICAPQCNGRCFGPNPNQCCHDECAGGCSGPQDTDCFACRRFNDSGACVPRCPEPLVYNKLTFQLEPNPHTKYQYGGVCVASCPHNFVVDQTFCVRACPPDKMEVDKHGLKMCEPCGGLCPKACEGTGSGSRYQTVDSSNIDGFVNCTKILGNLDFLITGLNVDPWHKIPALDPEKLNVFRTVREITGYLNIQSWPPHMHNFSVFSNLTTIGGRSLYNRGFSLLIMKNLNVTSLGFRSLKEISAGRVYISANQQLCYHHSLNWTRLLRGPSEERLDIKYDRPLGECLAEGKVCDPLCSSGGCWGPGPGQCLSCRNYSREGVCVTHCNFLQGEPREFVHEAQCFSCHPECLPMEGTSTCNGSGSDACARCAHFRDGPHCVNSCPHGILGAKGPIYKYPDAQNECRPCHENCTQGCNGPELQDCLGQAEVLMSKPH
Procedure: as §2

[8] = target: T1, ErbB3 (HER3), endogenous on human tumor …; assay: cell-based or functional assay; remark: listed apart in the source
[9] = target: T2, IGF-1R (receptor for insulin-like …); assay: cell-based or functional assay; remark: listed apart in the source
[10] = target: T1, ErbB3 (HER3), endogenous on human tumor …; assay: cell-based or functional assay; remark: listed apart in the source
[11] = target: T1, ErbB3 (HER3), endogenous on human tumor …; assay: cell-based or functional assay; remark: listed apart in the source
[12] = target: T1, ErbB3 (HER3), endogenous on human tumor …; assay: cell-based or functional assay; remark: listed apart in the source
[13] = target: T1, ErbB3 (HER3), endogenous on human tumor …; assay: cell-based or functional assay; remark: listed apart in the source
[14] = target: T2, IGF-1R (receptor for insulin-like …); assay: cell-based or functional assay; remark: listed apart in the source

T1 sequence (P21860 20-1342 limits assumed): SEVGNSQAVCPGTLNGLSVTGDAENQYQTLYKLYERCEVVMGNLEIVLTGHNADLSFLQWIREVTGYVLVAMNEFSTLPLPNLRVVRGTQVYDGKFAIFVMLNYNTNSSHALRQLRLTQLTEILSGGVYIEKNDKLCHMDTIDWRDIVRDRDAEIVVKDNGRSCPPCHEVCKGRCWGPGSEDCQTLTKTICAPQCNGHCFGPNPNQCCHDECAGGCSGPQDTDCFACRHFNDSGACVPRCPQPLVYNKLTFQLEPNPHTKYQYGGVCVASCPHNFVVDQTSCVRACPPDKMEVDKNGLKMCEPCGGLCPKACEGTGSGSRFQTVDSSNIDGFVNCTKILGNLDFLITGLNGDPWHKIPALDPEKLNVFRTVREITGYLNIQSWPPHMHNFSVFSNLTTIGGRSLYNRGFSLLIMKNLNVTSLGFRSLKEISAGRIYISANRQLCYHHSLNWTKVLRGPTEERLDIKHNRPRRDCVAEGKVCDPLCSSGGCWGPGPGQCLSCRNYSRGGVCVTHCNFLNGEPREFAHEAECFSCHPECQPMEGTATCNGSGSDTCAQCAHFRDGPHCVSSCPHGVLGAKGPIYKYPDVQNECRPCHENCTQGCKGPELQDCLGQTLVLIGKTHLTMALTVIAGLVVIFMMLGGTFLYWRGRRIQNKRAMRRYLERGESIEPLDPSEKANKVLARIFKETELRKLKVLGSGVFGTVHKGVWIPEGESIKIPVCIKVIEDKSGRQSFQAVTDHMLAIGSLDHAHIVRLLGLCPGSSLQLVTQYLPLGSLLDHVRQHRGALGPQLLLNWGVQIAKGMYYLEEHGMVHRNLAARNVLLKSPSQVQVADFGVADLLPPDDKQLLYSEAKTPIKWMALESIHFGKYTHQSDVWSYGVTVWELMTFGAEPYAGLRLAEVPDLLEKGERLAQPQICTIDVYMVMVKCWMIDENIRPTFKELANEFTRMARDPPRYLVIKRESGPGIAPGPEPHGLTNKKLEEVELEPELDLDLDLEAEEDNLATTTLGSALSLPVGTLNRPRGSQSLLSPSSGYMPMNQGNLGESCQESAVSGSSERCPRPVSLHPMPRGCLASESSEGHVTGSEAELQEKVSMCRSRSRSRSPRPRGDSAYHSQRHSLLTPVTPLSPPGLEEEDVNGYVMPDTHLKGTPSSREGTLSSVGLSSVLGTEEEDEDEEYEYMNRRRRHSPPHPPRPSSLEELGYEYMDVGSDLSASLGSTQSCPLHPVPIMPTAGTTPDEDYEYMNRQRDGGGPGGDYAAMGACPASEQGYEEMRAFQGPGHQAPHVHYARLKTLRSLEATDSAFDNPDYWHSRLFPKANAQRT

binding result [1]: binds
binding result [2]: binds
B1: ILE-10 (bispecific antibody, human IgG2, kappa)
heavy: EVQLLESGGGLVQPGGSLRLSCAASGFTFSVYPMHWVRQAPGKGLEWVSSISSSGGATRYADSVKGRFTISRDNSKNTLYLQMNSLRAEDTAVYYCAKDFYDILTGNAFDIWGQGTMVTVSSASTKGPSVFPLAPCSRSTSESTAALGCLVKDYFPEPVTVSWNSGALTSGVHTFPAVLQSSGLYSLSSVVTVPSSNFGTQTYTCNVDHKPSNTKVDKTVERKCCVECPPCPAPPVAGPSVFLFPPKPKDTLMISRTPEVTCVVVDVSHEDPEVQFNWYVDGVEVHNAKTKPREEQFNSTFRVVSVLTVVHQDWLNGKEYKCKVSNKGLPAPIEKTISKTKGQPREPQVYTLPPSREEMTKNQVSLTCLVKGFYPSDIAVEWESNGQPENNYKTTPPMLDSDGSFFLYSKLTVDKSRWQQGNVFSCSVMHEALHNHYTQKSLSLSPGKGGGGSGGGGSGGGGSLQEVQLLESGGGLVQPGGSLRLSCAASGFTFSAYNMRWVRQAPGKGLEWVSVIYPSGGATRYADSVKGRFTISRDNSKNTLYLQMNSLRAEDTAVYYCARGYYYYGMDVWGQGTLVTVSSASTGGGGSGGGGSGGGGSQSVLTQPPSASGTPGQRVTISCSGSDSNIGRNYIYWYQQFPGTAPKLLIYRNNQRPSGVPDRISGSKSGTSASLAISGLRSEDEAEYHCGTWDDSLSGPVFGGGTKLTVLS
light: DIQMTQSPSSFSASTGDRVTITCRASQGISSYLAWYQQKPGKAPKLLIYAASTLQSGVPSRFSGSGSGTDFTLTISSLQPEDSATYYCQQYFTFPLTFGGGTKVEIKRTVAAPSVFIFPPSDEQLKSGTASVVCLLNNFYPREAKVQWKVDNALQSGNSQESVTEQDSKDSTYSLSSTLTLSKADYEKHKVYACEVTHQGLSSPVTKSFNRGEC
notes: anti-IGF-1R/anti-ErbB3 IgG2-(scFv)2: anti-IGF-1R IgG2 (module 5-7), anti-ErbB3 scFv (module 2-3); also called 14F; 14f

binding result [1]: binds
binding result [2]: binds
B2: ILE-12 (bispecific antibody, human IgG2, kappa)
heavy: EVQLLESGGGLVQPGGSLRLSCAASGFTFSVYPMHWVRQAPGKGLEWVSSISSSGGATRYADSVKGRFTISRDNSKNTLYLQMNSLRAEDTAVYYCAKDFYDILTGNAFDIWGQGTMVTVSSASTKGPSVFPLAPCSRSTSESTAALGCLVKDYFPEPVTVSWNSGALTSGVHTFPAVLQSSGLYSLSSVVTVPSSNFGTQTYTCNVDHKPSNTKVDKTVERKCCVECPPCPAPPVAGPSVFLFPPKPKDTLMISRTPEVTCVVVDVSHEDPEVQFNWYVDGVEVHNAKTKPREEQFNSTFRVVSVLTVVHQDWLNGKEYKCKVSNKGLPAPIEKTISKTKGQPREPQVYTLPPSREEMTKNQVSLTCLVKGFYPSDIAVEWESNGQPENNYKTTPPMLDSDGSFFLYSKLTVDKSRWQQGNVFSCSVMHEALHNHYTQKSLSLSPGKGGGGSGGGGSGGGGSLQEVQLLESGGGLVQPGGSLRLSCAASGFTFSVYDMYWVRQAPGKGLEWVSYIYSSGGDTDYADSVKGRFTISRDNSKNTLYLQMNSLRAEDTATYYCARASTNSIYDAMDVWGQGTTVTVSSASTGGGGSGGGGSGGGGSDIQMTQSPSSVSASVGDRVTITCRASQDITNWLAWYQQKPGKAPTLLIYDASTLQSGVPSRFSGSGSGTDFTLTISSLQPEDFATYFCQQANGFPLTFGGGTKVEIK
light: DIQMTQSPSSFSASTGDRVTITCRASQGISSYLAWYQQKPGKAPKLLIYAASTLQSGVPSRFSGSGSGTDFTLTISSLQPEDSATYYCQQYFTFPLTFGGGTKVEIKRTVAAPSVFIFPPSDEQLKSGTASVVCLLNNFYPREAKVQWKVDNALQSGNSQESVTEQDSKDSTYSLSSTLTLSKADYEKHKVYACEVTHQGLSSPVTKSFNRGEC
notes: anti-IGF-1R/anti-ErbB3 IgG2-(scFv)2: anti-IGF-1R IgG2 (module 5-7), anti-ErbB3 scFv (module 2-21)

% IGF1R Downregulation (A549, 24 h) [3]: 48%
% IGF1R Downregulation (BxPC-3, 24 h) [3]: 53%
binding result (mouse IGF-1R-His): binds
pErbB3 IC50 (BxPC-3) [4]: 2.6e-11 M (inferred)
pIGF1R IC50 (BxPC-3) [5]: 1.3e-09 M (inferred)
pAKT IC50 (BxPC-3, HRG 20 ng/ml) [6]: 7.12e-11 M
pAKT IC50 (BxPC-3, HRG 200 ng/ml) [6]: 6.46e-11 M
pErbB3 IC50 (BxPC-3, HRG 20 ng/ml) [6]: 6.16e-11 M
pErbB3 IC50 (BxPC-3, HRG 200 ng/ml) [6]: 6.53e-11 M
pAKT IC50 (BxPC-3, IGF1 40 ng/ml) [7]: 3.8e-10 M
pAKT IC50 (BxPC-3, IGF1 400 ng/ml) [7]: 6.4e-10 M
pIGF1R IC50 (BxPC-3, IGF1 40 ng/ml) [7]: 1e-09 M
pIGF1R IC50 (BxPC-3, IGF1 400 ng/ml) [7]: 2.4e-09 M
binding result (mouse ErbB3-His): binds
binding result (rat ErbB3-His): binds
pErbB3 % Inhibition (BxPC-3) [8]: 111%
pErbB3 IC50 (BxPC-3) [8]: 2.6e-11 M (inferred)
pIGF1R % Inhibition (BxPC-3) [9]: 88%
pIGF1R IC50 (BxPC-3) [9]: 1.3e-09 M (inferred)
B3: M7-G1-M78 (bispecific antibody, human IgG1, lambda)
heavy: not shown
light: SSELTQDPAVSVALGQTVRITCQGDSLRSYYASWYQQKPGQAPVLVIYGKNNRPSGIPDRFSGSSSGNTASLTITGAQAEDEADYYCNSRDTPGNKWVFGGGTKVTVIGQPKAAPSVTLFPPSSEELQANKATLVCLVSDFYPGAVTVAWKADGSPVKVGVETTKPSKQSNNKYAASSYLSLTPEQWKSHRSYSCRVTHEGSTVEKTVAPAECS
notes: IgG1-(scFv)2: anti-ErbB3 Fab, anti-IGF-1R scFv; also called M7-M78; M7-78

pAKT IC50 (BxPC-3) [10]: 3.9e-10 M (inferred)
pAKT IC50 (DU145) [10]: 2.8e-10 M (inferred)
pErbB3 IC50 (BxPC-3) [10]: 5.1e-11 M (inferred)
pErbB3 IC50 (DU145) [10]: 8.2e-11 M (inferred)
pAKT IC50 (BxPC-3) [4]: 3.5e-10 M (inferred)
pErbB3 IC50 (BxPC-3) [4]: 9.2e-11 M (inferred)
pAKT IC50 (BxPC-3, HRG 20 ng/ml) [6]: 3.06e-10 M
pAKT IC50 (BxPC-3, HRG 200 ng/ml) [6]: 3.26e-10 M
pErbB3 IC50 (BxPC-3, HRG 20 ng/ml) [6]: 2.41e-10 M
pErbB3 IC50 (BxPC-3, HRG 200 ng/ml) [6]: 1.98e-10 M
pAKT IC50 (BxPC-3 50% ErbB3 KD) [11]: 2.8e-10 M
pAKT IC50 (BxPC-3 50% IGF1R KD) [11]: 1.6e-09 M
pAKT IC50 (BxPC-3 Vector Control) [11]: 2.5e-09 M
pAKT IC50 (BxPC-3) [12]: 5.7e-09 M (inferred)
pErbB3 IC50 (BxPC-3) [12]: 4.3e-10 M (inferred)
B4: ANTI-ErbB3 Ab# A (antibody, V domains shown)
VH: QVQLQQWGAGLLKPSETLSLTCAVYGGSFSGYYWSWIRQPPGKGLEWIGEINHSGSTNYNPSLKSRVTISVETSKNQFSLKLSSVTAADTAVYYCARDKWTWYFDLWGRGTLVTVSS
VL: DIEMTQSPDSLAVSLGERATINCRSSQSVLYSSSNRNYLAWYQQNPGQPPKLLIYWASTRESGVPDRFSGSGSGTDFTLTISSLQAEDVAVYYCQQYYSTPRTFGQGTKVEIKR

pErbB3 IC50 (BxPC-3, HRG+IGF1) [13]: 3.7 nM
pIGF-1R IC50 (BxPC-3, HRG+IGF1) [14]: 10 nM
B5: ELI-7 (bispecific antibody, human IgG2, lambda)
heavy: EVQLLESGGGLVQPGGSLRLSCAASGFTFSAYNMRWVRQAPGKGLEWVSVIYPSGGATRYADSVKGRFTISRDNSKNTLYLQMNSLRAEDTAVYYCARGYYYYGMDVWGQGTLVTVSSASTKGPSVFPLAPCSRSTSESTAALGCLVKDYFPEPVTVSWNSGALTSGVHTFPAVLQSSGLYSLSSVVTVPSSNFGTQTYTCNVDHKPSNTKVDKTVERKCCVECPPCPAPPVAGPSVFLFPPKPKDTLMISRTPEVTCVVVDVSHEDPEVQFNWYVDGVEVHNAKTKPREEQFNSTFRVVSVLTVVHQDWLNGKEYKCKVSNKGLPAPIEKTISKTKGQPREPQVYTLPPSREEMTKNQVSLTCLVKGFYPSDIAVEWESNGQPENNYKTTPPMLDSDGSFFLYSKLTVDKSRWQQGNVFSCSVMHEALHNHYTQKSLSLSPGKGGGGSGGGGSGGGGSLQEVQLLESGGGLVQPGGSLRLSCAASGFTFSVYPMHWVRQAPGKGLEWVSSISSSGGATRYADSVKGRFTISRDNSKNTLYLQMNSLRAEDTAVYYCAKDFYDILTGNAFDIWGQGTMVTVSSASTGGGGSGGGGSGGGGSDIQMTQSPSSFSASTGDRVTITCRASQGISSYLAWYQQKPGKAPKLLIYAASTLQSGVPSRFSGSGSGTDFTLTISSLQPEDSATYYCQQYFTFPLTFGGGTKVEIK
light: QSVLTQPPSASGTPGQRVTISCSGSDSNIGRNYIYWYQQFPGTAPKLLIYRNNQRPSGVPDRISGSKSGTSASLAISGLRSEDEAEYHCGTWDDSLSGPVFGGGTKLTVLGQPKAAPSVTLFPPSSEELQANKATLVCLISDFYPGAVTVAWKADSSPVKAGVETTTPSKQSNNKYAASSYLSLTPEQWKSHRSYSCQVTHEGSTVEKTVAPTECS
